The text below walks through data of patent US20230192837A1 (published 2023).

One assay addresses cynomolgus monkey TNFα (cynomolgus monkey, UniProt P79337 57-233, limits assumed). As to the kind of experiment: cell-based or functional assay.
The target of assay [1] is T1, human TNFα (human, UniProt P01375 57-233, limits assumed). As to the kind of experiment: cell-based or functional assay.
Assay [2] deals with T1, human TNFα. Nature of the assay: cell-based or functional assay. This is another data set of the same source.
The target in assay [3] is membrane human TNFα (non-cleavable TNFα) expressed on CHO cells (human, UniProt P01375 1-233). Nature of the assay: cell-based or functional assay.
Another assay deals with T2, rhesus macaque TNFα (rhesus macaque, UniProt P48094 77-233).
T2 construct: Bought (R&D Systems, Cat #1070-RM); also called rhesus macaque monkey TNFα
T2 sequence (P48094 77-233 limits assumed): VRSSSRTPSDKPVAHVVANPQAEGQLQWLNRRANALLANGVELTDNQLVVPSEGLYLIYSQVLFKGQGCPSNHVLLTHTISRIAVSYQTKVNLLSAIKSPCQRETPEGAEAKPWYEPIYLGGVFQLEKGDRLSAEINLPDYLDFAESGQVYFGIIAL
Nature of the assay: antigen-down ELISA, TNFα coated on plate, anti-human kappa-AP detection. On the procedure: Once the color developed (approximately 15-30 min), plates were read at 560 nm OD on a Molecular Device Spectramax plate reader and data was acquired using Softmax Pro 4.7 software. Data analysis was performed in GraphPad Prism.
(In general: An ELISA detects its analyte on a solid surface through an enzyme-linked reagent.)

T1 sequence (P01375 57-233 limits assumed, form in doubt): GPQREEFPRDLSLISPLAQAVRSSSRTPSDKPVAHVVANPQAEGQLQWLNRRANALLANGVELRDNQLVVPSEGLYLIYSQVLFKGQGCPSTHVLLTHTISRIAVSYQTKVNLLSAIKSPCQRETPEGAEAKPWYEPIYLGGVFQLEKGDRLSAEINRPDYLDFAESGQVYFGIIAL
cynomolgus monkey TNFα, sequence (P79337 57-233 limits assumed, form in doubt): as the sequence (P01375 57-233 limits assumed, form in doubt) above, with R9K, L11P, L57V, R64T, T92N, R158L counted along it

B1: Ab3 (antibody, human IgG1, kappa, V domains shown)
VH: QVQLVQSGAEVKKPGASVKVSCKASGYTFTGYYMHWVRQAPGQGLEWMGWINPYTGGTKYAQKFQGRVTMTRDTSISTAYMELSRLRSDDTAVYYCARDLYGSSNYGMDVWGQGTTVTVSS
VL: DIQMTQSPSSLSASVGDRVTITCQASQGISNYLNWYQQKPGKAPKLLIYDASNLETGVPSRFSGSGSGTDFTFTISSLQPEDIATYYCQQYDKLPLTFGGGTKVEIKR
On to B1, for which the “IC50 of inhibition of soluble cynomolgus monkey TNFα induced cell killing of L929 cells” value with cynomolgus monkey TNFα is 0.02 mg/L. Also, in the assay with human TNFα [1], the “IC50 of inhibition of soluble human TNFα induced cell killing of L929 cells” value was found to be 0.19 mg/L. In addition, in the assay with human TNFα [2], the “% Inhibition of human TNFα-induced plasma CXCL1 in C57/B6 mice, dose 0.3 mg/kg” value (shortened to “% Inhibition … dose 0.3 mg/kg”) turned out to be 64.4% and the “% Inhibition of human TNFα-induced plasma CXCL1 in C57/B6 mice, dose 3 mg/kg” value (“% Inhibition … dose 3 mg/kg” for short) was determined as 86.6%.

B2: Ab5 (antibody, human IgG1, kappa, V domains shown)
VH: QVQLVQSGAEVKKPGASVKVSCKASGYTFTGYYMHWVRQAPGQGLEWMGWINPYTGGTKYAQKFQGRVTMTRDTSISTAYMELSRLRSDDTAVYYCARDLYGSSNYGMDVWGQGTTVTVSS
VL: DIQMTQSPSSLSASVGDRVTITCQASQGIRNYLNWYQQKPGKAPKLLIYDASNLETGVPSRFSGSGSGTDFTFTISSLQPEDIATYYCQQYDKLPLTFGGGTKVEIKR
For B2, in the assay with cynomolgus monkey TNFα, the “IC50 of inhibition of soluble cynomolgus monkey TNFα induced cell killing of L929 cells” value came out at 0.03 mg/L. Besides, the “IC50 of inhibition of soluble human TNFα induced cell killing of L929 cells” value in the assay with human TNFα [1] was determined as 0.22 mg/L. In addition, the “IC50 of inhibition of membrane TNFα-induced cell killing of L929 cells” value in assay [3] was found to be 0.2 mg/L. Also, in the assay with human TNFα [2], the “% Inhibition … dose 0.3 mg/kg” value is 49.8% and the “% Inhibition … dose 3 mg/kg” value turned out to be 84.3%.

B3: Ab1 (antibody, human IgG1, kappa, V domains shown)
VH: QVQLVQSGAEVKKPGASVKVSCKASGYTFTGYYIHWVRQAPGQGLEWMGWINPYTGGTNYAQKFQGRVTMTRDTSISTAYMELSRLRSDDTAVYYCARDLYGSSNYGGDVWGQGTTVTVSS
VL: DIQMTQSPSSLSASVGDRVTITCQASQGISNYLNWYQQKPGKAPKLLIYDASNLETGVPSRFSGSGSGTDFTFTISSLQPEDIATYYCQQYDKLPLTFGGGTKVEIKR
notes: Human IgG1 with kappa light chain, expressed in CHO cells; also called exemplified anti-human TNFα antibody Ab1
For orientation: EC50 means the concentration needed to bring the measured effect to its halfway point. Regarding B3, in the assay with cynomolgus monkey TNFα, the “IC50 of inhibition of soluble cynomolgus monkey TNFα induced cell killing of L929 cells” value is 0.02 mg/L. The “IC50 of inhibition of soluble human TNFα induced cell killing of L929 cells” value in the assay with human TNFα [1] stood at 0.16 mg/L. In the assay with human TNFα [2], the “% Inhibition … dose 0.3 mg/kg” value was 63% and the “% Inhibition … dose 3 mg/kg” value is 83.9%. In addition, the EC50 with rhesus macaque TNFα amounted to 0.155 mg/L.

B4: Ab4 (antibody, human IgG1, kappa, V domains shown)
VH: QVQLVQSGAEVKKPGASVKVSCKASGYTFTGYYMHWVRQAPGQGLEWMGWINPYTGGTKYAQKFQGRVTMTRDTSISTAYMELSRLRSDDTAVYYCARDLYGSSNYGMDVWGQGTTVTVSS
VL: not shown
For B4, the “IC50 of inhibition of soluble cynomolgus monkey TNFα induced cell killing of L929 cells” value with cynomolgus monkey TNFα worked out at 0.02 mg/L. Also, in the assay with human TNFα [1], the “IC50 of inhibition of soluble human TNFα induced cell killing of L929 cells” value amounted to 0.19 mg/L. In the assay with human TNFα [2], the “% Inhibition … dose 0.3 mg/kg” value was determined as 57.2% and the “% Inhibition … dose 3 mg/kg” value was 92.6%.

B5: Ab2 (antibody, human IgG1, kappa, V domains shown)
VH: QVQLVQSGAEVKKPGASVKVSCKASGYTFTGYYIHWVRQAPGQGLEWMGWINPYTGGTNYAQKFQGRVTMTRDTSISTAYMELSRLRSDDTAVYYCARDLYGSSNYGMDVWGQGTTVTVSS
VL: not shown
On to B5, for which the “IC50 of inhibition of soluble cynomolgus monkey TNFα induced cell killing of L929 cells” value in the assay with cynomolgus monkey TNFα was found to be 0.02 mg/L. Also, in the assay with human TNFα [1], the “IC50 of inhibition of soluble human TNFα induced cell killing of L929 cells” value amounted to 0.13 mg/L. In the assay with human TNFα [2], the “% Inhibition … dose 0.3 mg/kg” value came out at 46.5% and the “% Inhibition … dose 3 mg/kg” value was 82.1%.
